In the supplement of paper PMC12783771:
± gives the standard deviation of the averaged measurements.

B1: library; a variant is named by its letters at X, in order (parent)
chain: MNIQIGELAKRTACPVVTIRFYEQEGLLPPPGRSRGNFRLYGEEHVERLQFIRHCRSLDMPLSDVRTLLSYRKRPDQDCGEVXMLLDEHIRQVESRIGALLELKHHLVELREACSGARPAQSCGILQXLSXCVCXTRGTTAHXSD

Assays:
[1] = variants of: B1; experiment: sfGFP reporter fluorescence (15 h) (µM FITC); higher = higher leak; conditions: library round: Round 2; ligand: none
Description: (§1)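 Cell-free biosensing: 1 µL Echo-assembled CFE reactions with linear PbrR variant templates (5 nM) and pPbrR-sfGFP reporter, with 1 µM Pb, 30 µM Zn or no ligand; endpoint sfGFP fluorescence after 15 h at 30 °C calibrated as µM FITC. Round 2 ML-predicted PbrR mutants; up to 3 biological replicates.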

[2] = variants of: B1; experiment: sfGFP reporter fluorescence (15 h) (µM FITC); higher = stronger transcriptional activation; conditions: library round: Round 2
Description: as §1

| Variant | sfGFP reporter fluorescence [1] | sfGFP reporter fluorescence ([2]; ligand: 1 µM Pb) | sfGFP reporter fluorescence ([2]; ligand: 30 µM Zn) |
| --- | --- | --- | --- |
| NGSPL | 0.077 ± 0.0065 | 0.141 ± 0.014 | 1.2 ± 0.12 |
| TGAYC | 0.05432 ± 0.00051 | 0.085 ± 0.0051 | 0.699 ± 0.064 |
| NGDAM Q121A | 0.0666 ± 0.0079 | 0.106 ± 0.0059 | 1.36 ± 0.13 |
| NGCDA L107C | 0.757 ± 0.089 | 1.68 ± 0.17 | 3.37 ± 0.31 |
| NGDAY L110V | 0.0649 ± 0.005 | 0.0584 ± 0.0031 | 0.445 ± 0.032 |
| TGDPR E109L | 0.063 ± 0.0052 | 0.114 ± 0.0072 | 0.346 ± 0.039 |
| NICDP K104R | 0.0714 ± 0.0069 | 0.134 ± 0.0046 | 0.244 ± 0.034 |
| NSEPP | 0.0629 ± 0.0028 | 0.145 ± 0.014 | 1.79 ± 0.34 |
| NMDDA M60L | 0.805 ± 0.062 | 1.88 ± 0.22 | 3.33 ± 0.49 |
| NHCDA | 0.0569 ± 0.0056 | 0.0749 ± 0.0034 | 0.446 ± 0.063 |
| TGDDP R111D E112H | 0.0469 ± 0.002 | 0.0446 ± 0.0019 | 0.0529 ± 0.003 |
| NHCDL E109L | 0.0622 ± 0.0037 | 0.0798 ± 0.0072 | 0.512 ± 0.062 |
| TGSAP V108L | 0.0457 ± 0.0012 | 0.102 ± 0.0018 | 0.475 ± 0.012 |
| SGDDP I90L V108N | 0.0447 ± 0.0012 | 0.04614 ± 0.00039 | 0.0897 ± 0.013 |
| NGDDW R74Q G138A | 0.0503 ± 0.0034 | 0.05902 ± 0.00051 | 0.58 ± 0.017 |
| TGDDP R96A K104V L107I | 0.0526 ± 0.0017 | 0.0483 ± 0.0032 | 0.0559 ± 0.002 |
| NHCDP I125V | 0.0459 ± 0.0044 | 0.0526 ± 0.0016 | 0.0631 ± 0.0035 |
| NGDAP M60L D64K | 1.45 ± 1.3 | 1.27 ± 0.82 | 3.35 ± 0.63 |
| NMDDP I3M P61N K104V L107C | 0.501 ± 0.013 | 0.989 ± 0.041 | 2.79 ± 0.18 |
| TGCAP Q121A | 0.0482 ± 0.0011 | 0.0978 ± 0.0067 | 0.156 ± 0.0046 |
| NGYAP S95G | 0.0664 ± 0.003 | 0.0795 ± 0.0044 | 1.03 ± 0.072 |
| TGSDP V108L | 0.0452 ± 0.0017 | 0.0823 ± 0.0056 | 0.229 ± 0.022 |
| NLDDP G124A L129A | 0.0419 ± 0.0017 | 0.0398 ± 0.0017 | 0.0426 ± 0.0023 |

| Variant | sfGFP reporter fluorescence [1] | sfGFP reporter fluorescence ([2]; ligand: 1 µM Pb) | sfGFP reporter fluorescence ([2]; ligand: 30 µM Zn) |
| --- | --- | --- | --- |
| NGDAP P61N V108E | 0.0745 ± 0.0048 | 0.129 ± 0.01 | 1.48 ± 0.14 |
| NIDDP H105E L107C C134E | 2.32 ± 0.044 | 2.05 ± 0.18 | 2.82 ± 0.14 |
| NIDAK M84A L107C | 1.54 ± 0.14 | 2.6 ± 0.14 | 4.03 ± 0.52 |
| SGMAP | 0.0668 ± 0.0035 | 0.0819 ± 0.0034 | 0.586 ± 0.076 |
| NGAPY | 0.0801 ± 0.0048 | 0.159 ± 0.0087 | 1.13 ± 0.12 |
| NGAPL | 0.0797 ± 0.0073 | 0.16 ± 0.0081 | 1.22 ± 0.26 |
| NHDDW E109L | 0.0479 ± 0.00051 | 0.0832 ± 0.0024 | 0.399 ± 0.045 |
| TGSDP H142A | 0.0642 ± 0.0043 | 0.081 ± 0.0053 | 0.451 ± 0.086 |
| NGSAY L107V | 0.12 ± 0.017 | 0.238 ± 0.042 | 1.97 ± 0.17 |
| NGDAP E109D G124A | 0.0638 ± 0.0036 | 0.0745 ± 0.0045 | 0.474 ± 0.07 |
| NGDAL L110I | 0.0605 ± 0.0082 | 0.0575 ± 0.0038 | 0.953 ± 0.064 |
| NGDDP P61N D64K K104M L107C | 0.791 ± 0.061 | 1.74 ± 0.2 | 2.52 ± 0.35 |
| NGDDP M60L D64K E81A | 1.03 ± 0.075 | 2.19 ± 0.059 | 3.74 ± 0.22 |
| TGDDY E112I | 0.0493 ± 0.0015 | 0.0522 ± 0.0014 | 0.076 ± 0.0028 |
| TGDAA E112I | 0.04637 ± 0.00034 | 0.0525 ± 0.0024 | 0.108 ± 0.0066 |
| NGDDP P61N L107C E109H | 0.627 ± 0.1 | 1.51 ± 0.22 | 2.62 ± 0.31 |
| NGDDP P61E L62I D64K | 0.125 ± 0.015 | 0.249 ± 0.094 | 1.34 ± 0.17 |
| SGSPP | 0.0484 ± 0.0013 | 0.123 ± 0.0072 | 0.394 ± 0.023 |
| NGTAT | 0.0539 ± 0.0037 | 0.0908 ± 0.0051 | 0.937 ± 0.052 |
| NMDAP L101V K104V | 0.176 ± 0.024 | 0.55 ± 0.022 | 2.78 ± 0.34 |
| NGDDP M60L P61N D64N | 0.291 ± 0.025 | 0.582 ± 0.11 | 2.53 ± 0.24 |
| NIDDP P61N C134E | 0.308 ± 0.021 | 0.544 ± 0.11 | 3.19 ± 0.055 |
| NGDDP P61E D64K E112H | 0.157 ± 0.027 | 0.377 ± 0.021 | 1.95 ± 0.22 |

| Variant | sfGFP reporter fluorescence [1] | sfGFP reporter fluorescence ([2]; ligand: 1 µM Pb) | sfGFP reporter fluorescence ([2]; ligand: 30 µM Zn) |
| --- | --- | --- | --- |
| NGDDP M60L D64S L107C | 3.21 ± 0.37 | 2.96 ± 0.13 | 3.58 ± 0.77 |
| NGDDR T136A T140A | 0.0505 ± 0.0017 | 0.0665 ± 0.0039 | 0.801 ± 0.079 |
| TGDDP V82I L85K | 0.0407 ± 0.0021 | 0.0368 ± 0.00078 | 0.0458 ± 0.0007 |
| NGCDP D64K E112H | 0.108 ± 0.012 | 0.402 ± 0.043 | 1.44 ± 0.16 |
| NGSRP L126I | 0.0416 ± 0.0022 | 0.0457 ± 0.0021 | 0.333 ± 0.0046 |
| NMDAA K104R L107C | 2.28 ± 0.3 | 3.13 ± 0.41 | 3.83 ± 0.4 |
| TGDDP E109D E112K | 0.0468 ± 0.0013 | 0.0781 ± 0.0022 | 0.418 ± 0.034 |
| TGDRW | 0.0495 ± 0.00078 | 0.0726 ± 0.0038 | 0.205 ± 0.014 |
| NGDAP P61D D64K L107C | 2.53 ± 0.22 | 1.89 ± 0.26 | 2.38 ± 0.23 |
| SGDDP L85Y K104V | 0.0628 ± 0.0056 | 0.0671 ± 0.0055 | 0.248 ± 0.027 |
| TGSDY Q121A | 0.0567 ± 0.0051 | 0.0961 ± 0.0073 | 0.443 ± 0.056 |
| NMDAP L85I | 0.11 ± 0.012 | 0.278 ± 0.017 | 3.11 ± 0.44 |
| TGDRP L107C | 0.176 ± 0.016 | 1.17 ± 0.063 | 2.94 ± 0.2 |
| NGLAP P61T | 0.217 ± 0.015 | 0.402 ± 0.021 | 1.9 ± 0.27 |
| NIDDP I90L K104V L107C | 0.0665 ± 0.003 | 0.0702 ± 0.0034 | 0.178 ± 0.014 |
| NIDDP L107C G124A | 0.942 ± 0.1 | 2.53 ± 0.21 | 3.41 ± 0.84 |
| NHDDA E109L | 0.0459 ± 0.0013 | 0.0809 ± 0.0052 | 0.343 ± 0.014 |
| NGDAR E112I | 0.0495 ± 0.0017 | 0.054 ± 0.002 | 0.35 ± 0.016 |
| NGHAY | 0.0533 ± 0.003 | 0.0816 ± 0.0062 | 0.791 ± 0.037 |
| TGDDP I97A K104G | 0.0644 ± 0.0063 | 0.155 ± 0.025 | 0.412 ± 0.04 |
| TGDRP V108L | 0.0448 ± 0.0017 | 0.0788 ± 0.0022 | 0.327 ± 0.012 |
| TGHAP | 0.0614 ± 0.0048 | 0.0828 ± 0.0035 | 0.394 ± 0.061 |
| NGDDP P61N D64T E112V | 0.117 ± 0.013 | 0.294 ± 0.026 | 2.13 ± 0.17 |

| Variant | sfGFP reporter fluorescence [1] | sfGFP reporter fluorescence ([2]; ligand: 1 µM Pb) | sfGFP reporter fluorescence ([2]; ligand: 30 µM Zn) |
| --- | --- | --- | --- |
| TGDDT R111I | 0.0459 ± 0.00085 | 0.0556 ± 0.0012 | 0.201 ± 0.0085 |
| TGDDT R111V | 0.048 ± 0.00067 | 0.0656 ± 0.0064 | 0.282 ± 0.033 |
| NIDDP K104T L107E | 0.047 ± 0.0022 | 0.0442 ± 0.00085 | 0.0493 ± 0.0021 |
| NGDAL P61N | 0.0792 ± 0.0022 | 0.235 ± 0.018 | 1.57 ± 0.074 |
| SGDVP K104V | 0.067 ± 0.0056 | 0.134 ± 0.0074 | 1.3 ± 0.15 |
| TGDDP D64E V108N | 0.0416 ± 0.00051 | 0.0357 ± 0.0033 | 0.0616 ± 0.0048 |
| NGDAP D64T Q127G | 0.0728 ± 0.0058 | 0.121 ± 0.013 | 1.87 ± 0.15 |
| NIDAK L107C G124A | 0.814 ± 0.086 | 2.25 ± 0.053 | 3.09 ± 0.3 |
| NGYPP V108I | 0.0743 ± 0.0068 | 0.149 ± 0.033 | 1.1 ± 0.074 |
| NHDAW | 0.0656 ± 0.0096 | 0.117 ± 0.0091 | 0.55 ± 0.081 |
| NHEDW | 0.0563 ± 0.0014 | 0.119 ± 0.014 | 0.842 ± 0.068 |
| NIDDP P61N D64K K104V L107A | 0.0923 ± 0.0059 | 0.215 ± 0.018 | 1.34 ± 0.1 |
| NGDDP D87E S95A K104V R111A | 0.0648 ± 0.0053 | 0.0918 ± 0.0068 | 0.74 ± 0.092 |
| NGDDP P61N D64K V108M | 0.154 ± 0.014 | 0.461 ± 0.026 | 2.33 ± 0.24 |
| TGDDP R96A E109A | 0.0459 ± 0.0014 | 0.0588 ± 0.00089 | 0.144 ± 0.02 |
| NGDDP D64K V108E R111L | 0.0746 ± 0.0031 | 0.165 ± 0.012 | 1.8 ± 0.29 |
| NPDAP I90L | 0.0467 ± 0.0027 | 0.04301 ± 0.00034 | 0.0482 ± 0.0039 |
| NISDP L107C | 2.65 ± 0.43 | 3.61 ± 0.5 | 3.33 ± 0.18 |
| NGDDW L110I S115G | 0.0528 ± 0.0019 | 0.0476 ± 0.0019 | 0.325 ± 0.019 |
| TGNRA | 0.0608 ± 0.0044 | 0.107 ± 0.018 | 0.663 ± 0.059 |
